Data taken from US11160869B2 (priority 2019, dated 2021).

Experiments:
[1] = tested on: STAT3; assay: pSTAT3/total STAT3 in colon tissue of non-inflamed mice (ELISA MSD); format: in vivo; details: construct 1 mg/kg; rhIL-10 0.9 mg/kg; oral
[2] = Purification with and without sulfitolysis: SEC-HPLC forms, yield and dimer recovery after Capto Q; details: for Dimer Purity after Capto Q Chromatography: Capto Q load 1680 mg; for Dimer Purity: after Capto Q chromatography
Protocol: Refolding in both processes was carried out at 4° C. The refolding solution used in both processes contained 1 mM reduced glutathione, 0.5 mM oxidized glutathione, 1M Arginine-HCl, 250 mM sucrose, 100 mM Tris pH 8.5 at 4° C., and 2 mM EDTA.

[3] = tested on: polarized gut epithelial cells; assay: In vivo transcytosis across polarized gut epithelial cells, rat jejunum, microscopy; parameters: species or system Wistar rats; details: luminal application to rat jejunum
Protocol: In vivo transcytosis was tested using male Wistar rats. Male Wistar rats were housed 3-5 per cage with a 12/12 h light/dark cycle and were about 225-275 g (approximately 6-8 weeks old) when placed on study. Experiments were conducted during the light phase using a non-recovery protocol that uses continuous isoflurane anesthesia. A 4-5 cm midline abdominal incision that exposed mid-jejunum regions was conducted. Stock solutions at 3.86×10^−5 M of delivery construct were prepared in phosphate buffered saline (PBS), with 50 μL (per 250 g rat) being administered by intraluminal injection (ILI) using a 29-gauge needle. The injection site mesentery was then marked with a permanent marker. […]
The delivery construct (SEQ ID NO: 5) included the cholix carrier with SEQ ID NO: 4 (and further including an N-terminal methionine) coupled to the IL-10 payload having an amino acid set forth in SEQ ID NO: 2 via a spacer having an amino acid set forth in SEQ ID NO: 6. Green fluorescence indicates the presence of IL-10 (via staining with an anti-IL-10 antibody). Blue fluorescence indicates DAPI staining, which labels DNA, and red fluorescence indicates the presence of CK-8 (cytokeratin-8) with which a cholix-derived carrier can co-localize (e.g., in a supranuclear region of an epithelial cell) during transcytosis. […]

[4] = 37 C, 5 h, 0.3 mg/mL
[5] = Evaluation of chromatography modes (CEX, HIC): protein stability; format: physicochemical
Protocol: Several modes of chromatography were evaluated during process development.

[6] = tested on: IL-1Ra; assay: Systemic IL-1Ra in non-inflamed mice (ELISA MSD); format: in vivo; details: construct 10 mg/kg; rhIL-10 3 mg/kg; oral
[7] = Compression force screening, tablet properties and dimer recovery on dissolution; format: physicochemical; details: F1 and F2 tablets
Protocol: Various compression forces were used to create F1 tablets (TABLE 31) and F2 tablets (TABLE 32). Dimer purity of the target construct was also examined following compaction into a tablet. […] Dimer recovery was also assessed following dissolution of various tablets at pH 7.0 (FIGS. 20A-20D).
An additional tablet (F3) was created, which was similar to an F1 tablet but with glyceryl dibehenate in place of magnesium stearate (TABLE 33). This substitution was made due to incompatibility of magnesium stearate in dissolution of target constructs in solution.

[8] = Phase 1a single ascending dose in healthy male volunteers; format: in vivo, human
Protocol: In part B of the study, early data was gathered on the safety and tolerability, pharmacokinetics, pharmacodynamics and early clinical response following multiple ascending doses of the IL-10 delivery construct in Ulcerative Colitis (UC) patients (Part B).
Part A consisted of a single-ascending dose (SAD) escalation in healthy male volunteers. Six cohorts consisting of orally administered single ascending doses were conducted. At each dose level, 6 subjects were enrolled, randomized 2:4 to receive a single dose of placebo or the IL-10 delivery construct on day 1. The doses selected were 1 mg, 3 mg, 10 mg, 30 mg, 60 mg, and 120 mg.

[9] = tested on: CD3+ cells and F4/80 macrophages; assay: Cellular target in lamina propria after oral gavage (CD3, F4/80, pSTAT3); format: in vivo, mouse; details: 40 min after oral gavage
[10] = Plasma rhIL-10, IL-10 delivery construct and IL-1Ra immunoassays, DSS study; format: in vivo, mice; details: 0.3 and 3 mg/kg, 4 hours after final dose
From the text: Plasma cytokines were quantified using the V-plex Proinflammatory Panel 1 Mouse Kit. Plasma IL-1Ra was quantitated by sandwich immunoassay using an antibody pair from the Mouse IL-1Ra/IL-1F3 DuoSet ELISA (R&D Systems #DY480), Streptavidin SULFO-TAG Labeled (MSD #R32AD-1), Multi-Array 96 Plate Pack, SECTOR Plate MSD #L15XA-3 and Read Buffer T (4×) (MSD #R92TC-2). Samples were read on the QuickPlex SQ 120 plate reader (Meso Scale Discovery, Rockville, Md.).
The Human IL-10 Base kit (MSD #K151AOA-4) was used to measure rhIL-10 in plasma. […] The MSD Small Spot IL-10 plate was incubated with Diluent 41 (25 μL/well) for 30 minutes at room temperature with shaking before use. Controls and samples were diluted 2-fold with pooled CD-1 mouse plasma (BioIVT, custom order), and the calibration standards were also prepared in mouse plasma. Standards, diluted samples and controls were added (25 μL/well), and the plate was incubated for 2 hours at room temperature with shaking. The plate was washed 3 times with phosphate buffered saline with Tween-20 (PBST), and 25 μL/well 1×SULFO TAG Anti-human IL-10 Antibody (prepared in Diluent 45) was added to the plate. The plate was incubated for 1 hour at room temperature with shaking. Following a wash step, 150 μL/well of 2×MSD Read buffer was added, and the plate was read in the MSD Sector Imager 600 plate reader.

[11] = tested on: human SMI-100 monolayers; assay: Transport across polarized human small intestinal cell monolayers (SMI-100), western blot; details: apical to basal, 2 hr
[12] = No Sulfitolysis of SIB (2x UF/DF at 4° C.), SEC-HPLC before AEX
[13] = No Sulfitolysis of SIB (2x UF/DF for 66 h RT), SEC-HPLC before AEX
[14] = No Sulfitolysis of SIB (97 mL Capto Q)
[15] = Sulfitolysis of SIB (97 mL Capto Q)
[16] = Sulfitolysis of SIB (TFF-2 for 20 h at RT), SEC-HPLC after UF/DF, before AEX

B1: IL-10 delivery construct: recombinant homodimeric fusion protein: N-terminal methionine, cholix386 domain, polyGlySer spacer, recombinant human IL-10 (protein)
chain: MVEEALNIFDECRSPCSLTPEPGKPIQSKLSIPSDVVLDEGVLYYSMTINDEQNDIKDEDKGESIITIGEFATVRATRHYVNQDAPFGVIHLDITTENGTKTYSYNRKEGEFAINWLVPIGEDSPASIKISVDELDQQRNIIEVPKLYSIDLDNQTLEQWKTQGNVSFSVTRPEHNIAISWPSVSYKAAQKEGSRHKRWAHWHTGLALCWLVPMDAIYNYITQQNCTLGDNWFGGSYETVAGTPKVITVKQGIEQKPVEQRIHFSKGNAMSALAAHRVCGVPLETLARSRKPRDLTDDLSCAYQAQNIVSLFVATRILFSHLDSVFTLNLDEQEPEVAERLSDLRRINENNPGMVTQVLTVARQIYNDYVTHHPGLTPEQTSAGAQAGGGGSGGGGSGGGGSPGQGTQSENSCTHFPGNLPNMLRDLRDAFSRVKTFFQMKDQLDNLLLKESLLEDFKGYLGCQALSEMIQFYLEEVMPQAENQDPDIKAHVNSLGENLKTLRLRLRRCHRFLPCENKSKAVEQVKNAFNKLQEKGIYKAMSEFDIFINYIEAYMTMKIRN
modifications: homodimer
- increase in ratio of pSTAT3 to total STAT3 [1]: approximately 50%
- Aggregate % [2, 12]: 36%
- Monomer % [2, 12]: 22%
- Aggregate % [2, 13]: 57%
- Monomer % [2, 13]: 11%
- Dimer Purity after Capto Q Chromatography [2, 14]: 84%
- Dimer Purity [2, 14]: 84%
- Dimer Purity after Capto Q Chromatography [2, 15]: 74%
- Dimer Purity [2, 15]: 74%
- Aggregate % [2, 16]: 68%
- Monomer % [2, 16]: 8%
- Dimer Purity ([2]; Sulfitolysis of SIB (average of 3)): 82-83%
- earliest time of IL-10 payload transport into the lamina propria [3]: ≤ 1 min
- solution stability after reconstitution in PBS [4]: significant degradation
- behaviour at relatively low pH (cation exchange) [5]: precipitate at a pH below the pI of the target construct (pH 5.5)
- behaviour in high salt (hydrophobic interaction chromatography) [5]: unstable in the high salt
- increase of systemic IL-1Ra [6]: about 3 fold
- robustness of dimer to compaction into tablet [7]: robust to compaction and granulation, although some aggregation was observed in final tablet form
- IL-1Ra induction at high doses ([8]; 60 and 120 mg): loss of immunomodulatory activity
- drug in blood ([8]; all doses (1-120 mg)): no drug was detected in the blood
- adverse events in 24 active subjects ([8]; all mild, self-limiting): 2
- IL-1Ra expression ([8]; single dose): able to induce IL-1Ra expression
- safety and tolerability ([8]; single oral doses 1-120 mg): safe and well tolerated
- co-localization of pSTAT3 with CD3+ cells [9]: A moderate proportion of CD3+ cells
- co-localization of pSTAT3 with F4/80 macrophages [9]: extensive co-localization with pSTAT3
- plasma rhIL-10 relative to background of Vehicle treatment [10]: 10-300 fold higher
- transport across monolayers relative to rhIL-10 [11]: to a greater extent
